Measured values as given in US20250289893A1 (OXFORD UNIVERSITY INNOVATION, published 2025).

Assays:
[1] = biological target: T1, chimeric CD1a pool B protein [human CD1a lipid binding domain, mouse CD1d Ig domain] (human; mouse, UniProt P06126 18-201; P11609 205-297, limits assumed); test: ELISA, 0.0316 µg/ml antibody
Experimental: (§1) CD1a-specific antibodies were identified by ELISA. […] 20 μl/well of peroxidase-conjugated goat anti-species IgG Fc-specific F(ab′)2 fragment (Jackson ImmunoResearch), diluted 1:5000 in block buffer was added and incubated at room temperature for 1 hour, followed by washing with wash buffer.
(§2) The antibodies were titrated through a dilution series and compared to a control rabbit IgG antibody. […] Data shown for purified antibodies.

[2] = biological target: T2, human CD1a protein (pool B) (human, UniProt P06126 18-295, limits assumed); test: ELISA, 1 µg/ml antibody
T2 construct: Recombinant protein of the ELISA (coated) and the Biacore T200 titration; whole entry named; also called human CD1a pool B; full length CD1a
T2 sequence (P06126 18-295 limits assumed): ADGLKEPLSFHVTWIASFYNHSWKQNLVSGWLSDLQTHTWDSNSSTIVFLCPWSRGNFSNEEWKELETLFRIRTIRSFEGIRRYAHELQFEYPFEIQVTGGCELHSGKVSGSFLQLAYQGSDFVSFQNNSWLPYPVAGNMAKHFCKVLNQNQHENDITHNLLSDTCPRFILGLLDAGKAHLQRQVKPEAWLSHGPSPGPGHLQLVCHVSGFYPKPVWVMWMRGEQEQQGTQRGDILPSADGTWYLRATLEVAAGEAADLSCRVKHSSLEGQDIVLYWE
Experimental: as §1
(§3) The antibodies were titrated through a dilution series and compared to a control rabbit IgG antibody.

[3] = biological target: T3, human CD1b expressed on HEK-293 cells (human, UniProt P29016 18-333; P61769 21-119); test: flow cytometry, HEK-293 cells, 100 µg/ml antibody
T3 construct: also called HEK - CD1b
Experimental: (§4) Binding to proteins expressed on HEK, C1R and MOLT4 cell lines was assessed. […] The C1R-CD1a, C1R-empty vector and MOLT4 cell lines were washed in 1×PBS on the day required. All cell lines were counted and resuspended in 1×PBS and then stained for 30 minutes at 37° C. using the DiI or DiO cellular stains (Invitrogen). Cells were washed with flow cytometry buffer (1% bovine serum albumin, 2 mM EDTA and 0.1% sodium azide in PBS) before mixing 2 DiI-stained and DiO-stained populations together. The cells (20 μl/well) were then added to dilutions of antibody sample (B cell culture supernatant, TAP supernatant, clone supernatant, purified antibody solution) (20 μl/well) and incubated for 1 hour at 4° C. in a flow cytometry assay plate, before being washed with flow cytometry buffer. 10 μl/well of Alexafluor647-conjugated goat anti-species IgG Fc-specific F(ab′)2 fragment (Jackson ImmunoResearch), diluted 1:2500 in flow cytometry buffer, was added and incubated at 4° C. for 30 minutes, followed by washing with wash buffer. The fluorescence intensity was then measured on an iQue screener PLUS.
(§5) HEK-293 cells were transiently transfected with human CD1a, CD1b, CD1c or CD1d and co-transfected with human β2M.

[4] = biological target: T4, human CD1c expressed on HEK-293 cells (human, UniProt P29017 18-333; P61769 21-119); test: flow cytometry, HEK-293 cells, 100 µg/ml antibody
T4 construct: also called HEK - CD1c
Experimental: as §4, §5

[5] = biological target: T5, human CD1d expressed on HEK-293 cells (human, UniProt P15813 20-335; P61769 21-119); test: flow cytometry, HEK-293 cells, 100 µg/ml antibody
T5 construct: also called HEK - CD1d
Experimental: as §4, §5

[6] = biological target: T6, human CD1a expressed on cells (human, UniProt P06126 17-327; P61769 21-119); test: flow cytometry, HEK-293 cells, 100 µg/ml antibody
T6 construct: also called HEK - CD1a; C1R - CD1a
Experimental: as §4, §5

[7] = biological target: T1, chimeric CD1a pool B protein [human …; test: ELISA, 3.16 µg/ml antibody
Experimental: as §1, §2

[8] = biological target: T2, human CD1a protein (pool B); test: ELISA, 10 µg/ml antibody
Experimental: as §1, §3

[9] = biological target: T3, human CD1b expressed on HEK-293 cells; test: flow cytometry, HEK-293 cells, 0.316 µg/ml antibody
Experimental: as §4, §5

[10] = biological target: T4, human CD1c expressed on HEK-293 cells; test: as above
Experimental: as §4, §5

[11] = biological target: T5, human CD1d expressed on HEK-293 cells; test: as above
Experimental: as §4, §5

[12] = biological target: T6, human CD1a expressed on cells; test: as above
Experimental: as §4, §5

[13] = biological target: T2, human CD1a protein (pool B); test: ELISA, 100 µg/ml antibody
Experimental: as §1, §3

[14] = biological target: T7, Cynomolgus monkey CD1a protein (Cynomolgus monkey); test: ELISA, 10 µg/ml antibody
T7 chain: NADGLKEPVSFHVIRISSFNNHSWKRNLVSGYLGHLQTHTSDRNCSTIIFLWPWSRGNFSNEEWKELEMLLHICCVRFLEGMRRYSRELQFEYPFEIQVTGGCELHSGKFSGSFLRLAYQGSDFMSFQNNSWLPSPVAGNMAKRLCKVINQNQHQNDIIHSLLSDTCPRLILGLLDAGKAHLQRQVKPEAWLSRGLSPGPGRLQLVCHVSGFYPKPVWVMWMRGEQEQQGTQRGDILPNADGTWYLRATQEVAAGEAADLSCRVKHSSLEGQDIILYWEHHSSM

[15] = biological target: T6, human CD1a expressed on cells; test: flow cytometry, C1R cells, 3.16 µg/ml antibody
Experimental: as §4
(§6) Binding was quantified as fold change in fluorescence intensity geomean over background assessed by flow cytometry.

[16] = biological target: T6, human CD1a expressed on cells; test: flow cytometry, C1R cells, 0.1 µg/ml antibody
Experimental: as §4, §6

[17] = biological target: T1, chimeric CD1a pool B protein [human …; test: ELISA, 1 µg/ml antibody
Experimental: as §1, §2

[18] = biological target: Cynomolgus monkey CD1a expressed on HEK-293 cells (Cynomolgus monkey, UniProt A0A2K5VQ68 17-326); test: flow cytometry, HEK-293 cells, 10 µg/ml antibody
Sequence of Cynomolgus monkey CD1a expressed on HEK-293 cells (A0A2K5VQ68 entry or part of it): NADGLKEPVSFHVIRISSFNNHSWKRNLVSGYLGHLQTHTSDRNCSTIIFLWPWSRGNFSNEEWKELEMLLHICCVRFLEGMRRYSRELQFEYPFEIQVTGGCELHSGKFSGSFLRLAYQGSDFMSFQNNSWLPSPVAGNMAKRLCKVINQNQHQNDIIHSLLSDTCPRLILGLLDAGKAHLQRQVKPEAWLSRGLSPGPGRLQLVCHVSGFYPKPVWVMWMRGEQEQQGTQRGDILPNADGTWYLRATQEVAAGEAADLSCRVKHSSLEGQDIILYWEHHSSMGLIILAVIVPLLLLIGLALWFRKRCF
Experimental: as §4, §6

[19] = biological target: T1, chimeric CD1a pool B protein [human …; test: ELISA, 10 µg/ml antibody
Experimental: as §1, §2

[20] = biological target: T2, human CD1a protein (pool B); test: ELISA, 0.316 µg/ml antibody
Experimental: as §1, §3

[21] = biological target: T6, human CD1a expressed on cells; test: flow cytometry, MOLT4 cells, 3.16 µg/ml antibody
Experimental: (§7) CD1a-specific antibodies were identified by flow cytometry. Binding to proteins expressed on HEK, C1R and MOLT4 cell lines was assessed. […] The C1R-CD1a, C1R-empty vector and MOLT4 cell lines were washed in 1×PBS on the day required. All cell lines were counted and resuspended in 1×PBS and then stained for 30 minutes at 37° C. using the DiI or DiO cellular stains (Invitrogen). Cells were washed with flow cytometry buffer (1% bovine serum albumin, 2 mM EDTA and 0.1% sodium azide in PBS) before mixing 2 DiI-stained and DiO-stained populations together. The cells (20 μl/well) were then added to dilutions of antibody sample (B cell culture supernatant, TAP supernatant, clone supernatant, purified antibody solution) (20 μl/well) and incubated for 1 hour at 4° C. in a flow cytometry assay plate, before being washed with flow cytometry buffer. 10 μl/well of Alexafluor647-conjugated goat anti-species IgG Fc-specific F(ab′)2 fragment (Jackson ImmunoResearch), diluted 1:2500 in flow cytometry buffer, was added and incubated at 4° C. for 30 minutes, followed by washing with wash buffer. The fluorescence intensity was then measured on an iQue screener PLUS.
as §6

[22] = biological target: T6, human CD1a expressed on cells; test: flow cytometry, MOLT4 cells, 0.0316 µg/ml antibody
Experimental: as §7, §6

[23] = biological target: T6, human CD1a expressed on cells; test: flow cytometry, MOLT4 cells, 0.1 µg/ml antibody
Experimental: as §7, §6

[24] = biological target: T7, Cynomolgus monkey CD1a protein; test: ELISA, 0.1 µg/ml antibody
[25] = biological target: T6, human CD1a expressed on cells; test: flow cytometry, MOLT4 cells, 31.6 µg/ml antibody
Experimental: as §7, §6

T1 sequence (P06126 other isoform, or with tags, fused parts or gaps mutant limits assumed): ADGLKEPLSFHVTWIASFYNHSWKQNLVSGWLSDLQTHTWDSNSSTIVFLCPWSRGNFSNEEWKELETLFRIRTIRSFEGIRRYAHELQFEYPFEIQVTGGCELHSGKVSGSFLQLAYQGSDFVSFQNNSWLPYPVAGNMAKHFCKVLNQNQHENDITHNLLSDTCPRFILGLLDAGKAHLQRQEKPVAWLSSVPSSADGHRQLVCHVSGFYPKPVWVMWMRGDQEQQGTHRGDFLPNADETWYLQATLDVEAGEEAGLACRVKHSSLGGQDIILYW

B1: 116 (VR12117) (antibody, V domains shown)
VH: QSVEESGGRLVTPGTPLTLTCTVSGFSLSNYAMSWVRQAPGKGLEWIGIIYTTGFTYYASWVKGRFTISKTSTTVDLKITSPTTEDTATYFCARGLATYVSPPTRLDLWGQGTLVTVSS
VL: AQVLTQTPSPVSAAVGGTVTINCQASQSIYNSKNLAWYQQKPGQPPKLLIYSASTLASGVPSRFKGSGSGTQFTLTISDLECDDAATYYCQGEFSCSSVDCATFGGGTEVVVK
notes: also called OX116
- Optical Density (OD) [1]: 1.13 OD
- Optical Density (OD) [2]: 1.15 OD
- Fluorescence Intensity Geomean (normalized to background) [3]: 1.1 fold over background
- Fluorescence Intensity Geomean (normalized to background) [4]: 1 fold over background
- Fluorescence Intensity Geomean (normalized to background) [5]: 1 fold over background
- Fluorescence Intensity Geomean (normalized to background) [6]: 3.9 fold over background
- Optical Density (OD) [7]: 1.38 OD
- Optical Density (OD) [8]: 1.18 OD
- Fluorescence Intensity Geomean (normalized to background) [9]: 1 fold over background
- Fluorescence Intensity Geomean (normalized to background) [10]: 1.1 fold over background
- Fluorescence Intensity Geomean (normalized to background) [11]: 1 fold over background
- Fluorescence Intensity Geomean (normalized to background) [12]: 36.5 fold over background
- Optical Density (OD) [13]: 1.15 OD
- Optical Density (OD) [14]: 0.16 OD
- Fluorescence Intensity Geomean (normalized to background) [15]: 24 fold over background
- Fluorescence Intensity Geomean (normalized to background) [16]: 27 fold over background
- Optical Density (OD) [17]: 1.42 OD
- Fluorescence Intensity Geomean (normalized to background) [18]: 1.7 fold over background
- Optical Density (OD) [19]: 1.4 OD
- Optical Density (OD) [20]: 1.15 OD
- Fluorescence Intensity Geomean (normalized to background) [21]: 23.9 fold over background
- Fluorescence Intensity Geomean (normalized to background) [22]: 14.9 fold over background
- Fluorescence Intensity Geomean (normalized to background) [23]: 22.6 fold over background
- Optical Density (OD) [24]: 0.07 OD
- Fluorescence Intensity Geomean (normalized to background) [25]: 5.6 fold over background
